Results as given in US11208638.

How the values were obtained:
[1] = system: split-Cas9 (alpha-helical lobe + nuclease lobe) (Streptococcus pyogenes); assay: cell_activity; details: HEK293T nucleofected RNP, nocodazole synchronized; 0.6% unsynchronized; WT 34% and 22%
[2] = target: Cas9 nuclease lobe (Streptococcus pyogenes) (UniProt Q99ZW2); assay: filter
[3] = target: Cas9 alpha-helical lobe (Streptococcus pyogenes) (UniProt Q99ZW2); assay: filter; details: 5 mM MgCl2, RT
[4] = system: split-dCas9 (alpha-helical lobe + dNuclease lobe) D10A,H840A (Streptococcus pyogenes); assay: EMSA; details: apparent; complex dissociation contributes; 5 mM MgCl2, heparin; PAM NGG
[5] = target: dCas9 D10A,H840A (Streptococcus pyogenes) (UniProt Q99ZW2); assay: EMSA; details: 5 mM MgCl2, heparin, RT; PAM NGG

Work on EMX1 sgRNA ; EMX1 locus target yielded an activity [1] of under 2 % indels.

delta-hairpins1-2 sgRNA gave a Kd ([2]; 5 mM MgCl2, RT) of over 100 nM.

delta-spacer-nexus sgRNA gave a Kd [3] of over 100 nM.

In the case of full-length sgRNA, the Kd ([2]; Example 1, p568 gives range 0.2-0.8 nM) is reported as 0.5 nM.

In the case of “full-length sgRNA ; target dsDNA (55 bp, with PAM)”, the Kd [4] is reported as 700 nM and the Kd [5] is reported as 0.2 nM.
